Assays:
[1] = target: T1, thrombin (human alpha thrombin) (human, UniProt P00734;P00734 P00734:328-363,P00734:364-622); experiment: BLI; no binding observed
[2] = target: T1, thrombin (human alpha thrombin); experiment: inhibition; fluorogenic peptidyl substrate; >99% max inhibition; 2 mM CaCl2, pH 7.5, 28 C
[3] = target: T1, thrombin (human alpha thrombin); experiment: BLI; printed as 54 μM but kon 3.9e7 M-1s-1 and koff 2.1e-3 s-1 give 54 pM; biotinylated aptamer immobilised; 20 mM HEPES, 150 mM NaCl, 2 mM CaCl2, pH 7.5
[4] = target: T1, thrombin (human alpha thrombin); experiment: BLI; kon down 15-fold, koff up 8-fold; absolute KD only in figure
[5] = target: T1, thrombin (human alpha thrombin); experiment: inhibition; ±0.04; max inhibition 55%; KEA,I 1.8
factor Xa [6] = target: T2, factor Xa (human, UniProt P00742;P00742 P00742:41-179,P00742:235-488); experiment: inhibition; fluorogenic substrate; free DAB IC50 >500 nM; conditions: tags: Haematologic Technologies Inc
T2 sequence (P00742 41-179, chain 1 of 2): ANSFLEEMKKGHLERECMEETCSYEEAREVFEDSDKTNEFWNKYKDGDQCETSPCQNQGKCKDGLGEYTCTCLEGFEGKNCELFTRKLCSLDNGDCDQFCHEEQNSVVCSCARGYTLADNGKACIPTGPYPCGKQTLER
T2 sequence (P00742 235-488, chain 2 of 2): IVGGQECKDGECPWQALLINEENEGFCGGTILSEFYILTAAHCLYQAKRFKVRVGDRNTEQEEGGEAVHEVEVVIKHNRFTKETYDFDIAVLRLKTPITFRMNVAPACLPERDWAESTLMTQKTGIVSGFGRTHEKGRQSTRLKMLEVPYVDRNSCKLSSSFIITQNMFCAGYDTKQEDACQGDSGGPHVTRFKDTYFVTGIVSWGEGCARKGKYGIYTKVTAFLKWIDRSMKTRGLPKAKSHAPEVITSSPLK

factor Xa [7] = target: T2, factor Xa; experiment: inhibition; fluorogenic substrate; free APX IC50 5.5 nM; conditions: tags: Haematologic Technologies Inc

AAAAAAAAGTCCGTAATAAAGCAGGTTAAAATGACT (ssDNA, 5' NH2-C6; 5' A(7) dA linker) [HD23-7A-NH2]
binding result [1]: no binding

AAAAAAAAGTCCGTGGTAGGGCAGGTTGGGGTGACT (ssDNA, 5' dabigatran-C6 amide; 5' A(7) dA linker) [HD22-7A-DAB]
IC50 [2]: 0.1 nM
Kd [3]: 0.054 nM

AAAAAAAAGTCCGTGGTAGGGCAGGTTGGGGTGACT (ssDNA, 5' NH2-C6; 5' A(7) dA linker) [HD22-7A-NH2]
Kd [4]: > 100 fold weaker than HD22-7A-DAB

AGTCCGTGGTAGGGCAGGTTGGGGTGACT (ssDNA, 5' dabigatran-C6) [HD22-0A-DAB]
IC50 [5]: 0.55 nM

B1: 11F7t-20A-DAB (ssRNA)
RNA: AAAAAAAAAAAAAAAAAAAAGAGAGCCCCAGCGAGAUAAUACUUGGCCCCGCUCUU
modifications: 5' dabigatran-C6; 2'-OMe A(20) linker; C and U of aptamer 2'-F (inferred); 3' T
IC50 (factor Xa [6]): 0.18 nM

B2: 11F7t-20A-APX (ssRNA)
RNA: B1 RNA
modifications: 5' apixaban-C6; 2'-OMe A(20) linker; C and U of aptamer 2'-F (inferred); 3' T
IC50 (factor Xa [7]): 0.17 nM
